Earlier results, collected in paper PMC11816975, “Bioactive Peptides from Milk Proteins with Antioxidant, Anti-Inflammatory, and Antihypertensive Activities” (Foods, 2025).

B1: bLF: bovine lactoferrin, orthologue compared with eLF (protein, UniProt P24627 20-708, looked up)
Lactotransferrin: APRKNVRWCTISQPEWFKCRRWQWRMKKLGAPSITCVRRAFALECIRAIAEKKADAVTLDGGMVFEAGRDPYKLRPVAAEIYGTKESPQTHYYAVAVVKKGSNFQLDQLQGRKSCHTGLGRSAGWIIPMGILRPYLSWTESLEPLQGAVAKFFSASCVPCIDRQAYPNLCQLCKGEGENQCACSSREPYFGYSGAFKCLQDGAGDVAFVKETTVFENLPEKADRDQYELLCLNNSRAPVDAFKECHLAQVPSHAVVARSVDGKEDLIWKLLSKAQEKFGKNKSRSFQLFGSPPGQRDLLFKDSALGFLRIPSKVDSALYLGSRYLTTLKNLRETAEEVKARYTRVVWCAVGPEEQKKCQQWSQQSGQNVTCATASTTDDCIVLVLKGEADALNLDGGYIYTAGKCGLVPVLAENRKSSKHSSLDCVLRPTEGYLAVAVVKKANEGLTWNSLKDKKSCHTAVDRTAGWNIPMGLIVNQTGSCAFDEFFSQSCAPGADPKSRLCALCAGDDQGLDKCVPNSKEKYYGYTGAFRCLAEDVGDVAFVKNDTVWENTNGESTADWAKNLNREDFRLLCLDGTRKPVTEAQSCHLAVAPNHAVVSRSDRAAHVKQVLLHQQALFGKNGKNCPDKFCLFKSETKNLLFNDNTECLAKLGGRPTYEEYLGTEYVTAIANLKKCSTSPLLEACAFLTR
B2: cLF: isolated camel lactoferrin (protein, UniProt Q9TUM0 20-708, looked up)
Lactotransferrin: ASKKSVRWCTTSPAESSKCAQWQRRMKKVRGPSVTCVKKTSRFECIQAISTEKADAVTLDGGLVYDAGLDPYKLRPIAAEVYGTENNPQTHYYAVAIAKKGTNFQLNQLQGLKSCHTGLGRSAGWNIPMGLLRPFLDWTGPPEPLQKAVAKFFSASCVPCVDGKEYPNLCQLCAGTGENKCACSSQEPYFGYSGAFKCLQDGAGDVAFVKDSTVFESLPAKADRDQYELLCPNNTRKPVDAFQECHLARVPSHAVVARSVNGKEDLIWKLLVKAQEKFGRGKPSGFQLFGSPAGQKDLLFKDSALGLLRISSKIDSGLYLGSNYITAIRGLRETAAEVELRRAQVVWCAVGSDEQLKCQEWSRQSNQSVVCATASTTEDCIALVLKGEADALSLDGGYIYIAGKCGLVPVLAESQQSPESSGLDCVHRPVKGYLAVAVVRKANDKITWNSLRGKKSCHTAVDRTAGWNIPMGLLSKNTDSCRFDEFLSQSCAPGSDPRSKLCALCAGNEEGQNKCVPNSSERYYGYTGAFRCLAENVGDVAFVKDVTVLDNTDGKNTEQWAKDLKLGDFELLCLNGTRKPVTEAESCHLAVAPNHAVVSRIDKVAHLEQVLLRQQAHFGRNGRDCPGKFCLFQSKTKNLLFNDNTECLAKLQGKTTYEEYLGPQYVTAIAKLRRCSTSPLLEACAFLMR

Tests used:
[1] = design: method as in PMID 23768340; settings: at 100 µg/mL
[2] = tested on: NO production; design: method as in PMID 23768340; settings: at 100 µg/mL

Molecule	DPPH• radical scavenging capacity (at 500 µg/mL)	DPPH• inhibition (at 100 µg/mL, ref Habib et al. 55)	ferric reducing power [1]	inhibition of NO production [2]
B1	approximately 33%	–	–	–
B2	–	2.77%	0.317 mM Fe^2+	about 5%
